From patent publication US20080027145A1, “Therapeutic Molecules and Methods for Generating and/or Selecting Same” (priority 2004, published 2008)

Assays:
GST Mcl-1 = GST Mcl-1 (Mus musculus, UniProt P97287); assay: GST pull-down with recombinant BH3-only proteins; type: binding
[1] = system: mouse embryonic fibroblasts (MEFs); assay: Killing of MEFs after retroviral expression, viability 24 hours after infection; type: cell-based; details: for killing of MEFs: retroviral expression, 24 hours after infection; for killing of MEFs on co-expression with the NoxaBH3: co-expressed with GFP-Bims NoxaBH3, 24 hours
Experimental: FIG. 7 is a graphical representation showing that BH3-only proteins that bind selective targets have weak killing activity. (A) The affinities of BH3-only peptides for pro-survival proteins (tabulated in FIG. 3A) were inversely plotted to facilitate comparison of the patterns of BH3 binding. […] Immortalized 3T9 MEFs were infected with retroviruses expressing only GFP (control), or one of the BH3-only proteins and GFP. The viability of the infected (GFP^+ve) cells was determined by PI exclusion 24 hours after infection. The histograms represent means±1SD of at least 3 experiments. […] The filter was probed with a rat monoclonal anti-FLAG antibody. *Degradation product of Mcl-1. […] Viability of MEFs infected with retroviruses encoding the indicated proteins (GFP^+ve) was analyzed 24 hours after infection. The histograms represent means±1SD of at least 3 experiments. (E) Long-term survival of MEFs infected with BH3 expressing retroviruses. One hundred retrovirally-infected cells were plated and the absolute number of GFP^+ve colonies formed after 6 days scored. […] The data represent the average number of GFP^+ve colonies formed±1SD from at least 3 experiments. To assess the biological relevance of the selective binding, retroviral delivery was used to compare the ability of different BH3-only proteins to kill wild-type mouse embryonic fibroblasts (MEFs). To monitor expression of the introduced gene, a vector (pMIG) in which its expression is coupled via an internal ribosomal entry site (IRES) to that of green fluorescent protein (GFP) was used (Van Parijs et al., Immunity 11:281-288, 1999). The cells were efficiently infected (>90%) and the introduced BH3-only proteins were comparably expressed. Viability of the infected (GFP^+ve) cells was scored 24 hours after infection (FIGS. 7A, 7B) and in long-term colony assays (FIG. 7E). […] Thus, the neutralization of Mcl-1 by Noxa should be complemented by co-expression of a BadBH3 to neutralize Bcl-2 and Bcl-xL in MEFs (FIG. 8A).

Mcl-1 ΔN151 ΔC23 = biological target: T1, Mcl-1 ΔN151 ΔC23 (Mus musculus, UniProt P97287); assay: Mcl-1 ΔN151 ΔC23
T1 construct: mouse Mcl-1 (Acc. no. NP_031588; residues 152-308); GST (N, cleaved yes); made in house
Experimental: (§1) Table printed on a drawing sheet, FIGURE 2A
Head of the field: Mcl-1 ΔN151 ΔC23
(§2) The patent's description of the figure: FIG. 2 is a graphical representation showing pro-apoptotic BH3-only and pro-survival Bcl-2-like proteins have distinctive interactions. (A) Using competitive binding assays, the IC50 (nM) for the indicated interactions were determined. The results shown are from representative experiments; the variation observed in multiple experiments was less than two-fold (using different chips or protein batches). (B) Relative binding affinities of interactions (tabulated in A) were inversely plotted. The BH3 binding profiles of pro-survival proteins are shown. In (C), the sequences of human Bcl-2 (residues 93-202), human Bcl-xL (86-195), human Bcl-w (42-151), mouse Mcl-1 (190-300) and mouse A1 (33-148) that form their BH3 binding grooves (α-helices 2 to 8; Hinds et al., EMBO J 22:1497-1507, 2003) were compared and presented as a phylogenetic tree. Color reproductions are available from the patentees on request.
(§3) First copying reader's note: The table itself prints no unit; IC50 (nM) is printed only on the axis of panel B of the same figure, which plots the same values.
Where the first naming reader finds the target: head: Mcl-1 ΔN151 ΔC23

A1 ΔC20 = biological target: T2, A1 ΔC20 (Mus musculus, UniProt Q07440); assay: A1 ΔC20
T2 construct: mouse A1 (Acc. no. NP_033872; residues 1-152); GST (N, cleaved yes); made in house
Experimental: as §1
Head of the field: A1 ΔC20
as §2, §3
Where the first naming reader finds the target: head: A1 ΔC20

FLAG-tagged Bcl-2 = biological target: T3, FLAG-tagged Bcl-2 (Homo sapiens, UniProt P10415); assay: Co-immunoprecipitation in transfected 293T cells; type: binding; details: tagged full-length proteins
T3 construct: expressed in transfected cells; host or cells: HEK293T
Text: (§4) Equivalent ^35S-labeled lysates harvested from 293T cells were immunoprecipitated with antibodies to the HA, FLAG (FL) or control (C) tags.
(§5) The maintenance, transfection and metabolic labeling of the human embryonic kidney (HEK) 293T cells with ^35S-methionine/cysteine (NEN) as well as co-immunoprecipitation have been described (Huang et al., Supra; Moriishi et al., Proc Natl Acad Sci USA 96:9683-9688, 1999; O'Conner et al., Supra). Briefly, equivalent TCA-precipitable lysates were immunoprecipiated using the mouse monoclonal antibodies to HA (HA.11; CRP), FLAG (M2; Sigma) and control Glu-Glu (CRP) tags. The proteins were resolved by SDS:PAGE, transferred onto nitrocellulose membranes and detected by fluorography (Amplify; Amersham Biosciences).
(§6) To verify the in vitro findings, interactions of selected pairs of the full-length N-terminally tagged proteins were investigated in mammalian cells by co-immunoprecipitation. […] The cells were metabolically labeled with ^35S-methionine/cysteine to permit semi-quantitative assessment of any interaction between co-associating radiolabeled proteins.
(§7) To verify the in vitro findings, selected pairs of the full-length N-terminally tagged proteins associated in mammalian cells were investigated by co-immunoprecipitation. […] The cells were metabolically labeled with ^35S-methionine/cysteine to permit semi-quantitative assessment of any interaction between the labeled proteins or interaction was gauged by the more sensitive western blotting.

FLAG-tagged Bcl-xL = biological target: T4, FLAG-tagged Bcl-xL (Homo sapiens, UniProt Q07817); assay: Co-immunoprecipitation in transfected 293T cells; type: binding; details: tagged full-length proteins
T4 construct: expressed in transfected cells; host or cells: HEK293T
Text: as §4, §5, §6, §7

FLAG-tagged Mcl-1 = biological target: T5, FLAG-tagged Mcl-1 (Mus musculus, UniProt P97287); assay: Co-immunoprecipitation in transfected 293T cells; type: binding; details: tagged full-length proteins
T5 construct: expressed in transfected cells; host or cells: HEK293T
Text: as §4, §5, §6, §7

Bcl-2 ΔC22 = biological target: T6, Bcl-2 ΔC22 (Homo sapiens, UniProt P10415); assay: Bcl-2 ΔC22
T6 construct: Human Bcl-2 (Acc. no. NP_000624; residues 1-217); made in house
Experimental: as §1
Head of the field: Bcl-2 ΔC22
as §2, with “In (C), the sequences of human Bcl-2 (residues 93-202), human Bcl-xL (86-195), human Bcl-w (42-151), mouse Mcl-1 (190-300) and mouse A1 (33-148) that form their BH3 binding grooves (α-helices 2 to 8; Hinds et al., EMBO J 22:1497-1507, 2003) were compared and presented as a phylogenetic tree.” left out
as §3
Where the first naming reader finds the target: head: Bcl-2 ΔC22

Bcl-xL ΔC24 = biological target: T7, Bcl-xL ΔC24 (Homo sapiens, UniProt Q07817); assay: Bcl-xL ΔC24
T7 construct: Human Bcl-xL (Acc. no. NP_612815; residues 1-209); GST (N, cleaved yes); made in house
Experimental: as §1
Head of the field: Bcl-xL ΔC24
as §2, §3
Where the first naming reader finds the target: head: Bcl-xL ΔC24

Bcl-w ΔC29 = biological target: T8, Bcl-w ΔC29 (Homo sapiens, UniProt Q92843, A128E/C29S); assay: Bcl-w ΔC29
T8 construct: human Bcl-w (Acc. no. NP_004041; residues 1-164; C29S A128E); made in house
Experimental: as §1, §2, §3

[2] = system: mouse embryonic fibroblasts (MEFs); assay: Long-term colony assay of retrovirally infected MEFs; type: cell-based; details: colonies after 6 days
Experimental: FIG. 7 is a graphical representation showing that BH3-only proteins that bind selective targets have weak killing activity. (A) The affinities of BH3-only peptides for pro-survival proteins (tabulated in FIG. 3A) were inversely plotted to facilitate comparison of the patterns of BH3 binding. […] Immortalized 3T9 MEFs were infected with retroviruses expressing only GFP (control), or one of the BH3-only proteins and GFP. The viability of the infected (GFP^+ve) cells was determined by PI exclusion 24 hours after infection. The histograms represent means±1SD of at least 3 experiments. […] The filter was probed with a rat monoclonal anti-FLAG antibody. *Degradation product of Mcl-1. […] Viability of MEFs infected with retroviruses encoding the indicated proteins (GFP^+ve) was analyzed 24 hours after infection. The histograms represent means±1SD of at least 3 experiments. (E) Long-term survival of MEFs infected with BH3 expressing retroviruses. One hundred retrovirally-infected cells were plated and the absolute number of GFP^+ve colonies formed after 6 days scored. […] The data represent the average number of GFP^+ve colonies formed±1SD from at least 3 experiments. […] Viability of the infected (GFP^+ve) cells was scored 24 hours after infection (FIGS. 7A, 7B) and in long-term colony assays (FIG. 7E).

T2 sequence (Q07440 1-152, stated change not applied): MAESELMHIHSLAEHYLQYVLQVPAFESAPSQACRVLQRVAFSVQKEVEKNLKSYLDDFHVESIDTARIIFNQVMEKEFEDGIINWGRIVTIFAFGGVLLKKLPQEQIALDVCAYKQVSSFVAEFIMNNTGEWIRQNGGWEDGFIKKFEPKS
T4 sequence (Q07817 whole entry): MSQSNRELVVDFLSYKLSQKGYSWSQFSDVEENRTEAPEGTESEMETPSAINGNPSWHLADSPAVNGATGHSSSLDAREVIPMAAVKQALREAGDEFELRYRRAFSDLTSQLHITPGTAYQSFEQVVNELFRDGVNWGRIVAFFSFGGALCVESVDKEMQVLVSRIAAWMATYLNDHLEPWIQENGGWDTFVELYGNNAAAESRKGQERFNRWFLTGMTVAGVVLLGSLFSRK
T6 sequence (P10415 1-217, stated change not applied): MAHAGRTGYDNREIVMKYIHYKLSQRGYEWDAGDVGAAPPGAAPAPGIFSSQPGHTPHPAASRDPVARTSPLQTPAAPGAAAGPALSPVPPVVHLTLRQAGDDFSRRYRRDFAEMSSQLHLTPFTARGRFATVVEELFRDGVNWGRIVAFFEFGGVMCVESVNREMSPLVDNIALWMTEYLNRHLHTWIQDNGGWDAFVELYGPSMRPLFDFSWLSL
T5 sequence (P97287 whole entry): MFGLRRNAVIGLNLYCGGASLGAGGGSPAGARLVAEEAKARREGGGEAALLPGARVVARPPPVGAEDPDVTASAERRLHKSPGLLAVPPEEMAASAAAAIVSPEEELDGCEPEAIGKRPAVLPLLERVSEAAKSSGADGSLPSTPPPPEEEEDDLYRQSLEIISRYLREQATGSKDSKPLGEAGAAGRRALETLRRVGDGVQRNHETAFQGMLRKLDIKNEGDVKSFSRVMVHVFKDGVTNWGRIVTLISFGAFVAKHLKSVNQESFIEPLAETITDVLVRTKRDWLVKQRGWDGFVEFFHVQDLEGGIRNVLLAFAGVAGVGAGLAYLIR
Sequence of GST Mcl-1 (P97287 whole entry): as above
T8 sequence (Q92843 1-164 C29S/A128E): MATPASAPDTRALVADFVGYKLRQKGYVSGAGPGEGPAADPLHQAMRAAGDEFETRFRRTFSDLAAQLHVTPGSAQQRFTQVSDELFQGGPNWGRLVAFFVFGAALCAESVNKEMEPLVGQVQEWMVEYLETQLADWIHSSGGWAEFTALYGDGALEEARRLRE
T7 sequence (Q07817 1-209, stated change not applied): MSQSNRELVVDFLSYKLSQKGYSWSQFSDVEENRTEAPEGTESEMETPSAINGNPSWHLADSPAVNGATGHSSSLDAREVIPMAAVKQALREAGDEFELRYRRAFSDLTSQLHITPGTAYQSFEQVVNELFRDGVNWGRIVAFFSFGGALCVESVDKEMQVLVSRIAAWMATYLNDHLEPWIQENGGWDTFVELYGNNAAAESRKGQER
T1 sequence (P97287 152-308, stated change not applied): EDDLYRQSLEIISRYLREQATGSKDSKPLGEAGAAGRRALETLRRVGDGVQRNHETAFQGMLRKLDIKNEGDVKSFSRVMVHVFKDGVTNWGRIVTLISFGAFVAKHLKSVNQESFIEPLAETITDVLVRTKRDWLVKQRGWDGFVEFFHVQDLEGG
T3 sequence (P10415 whole entry): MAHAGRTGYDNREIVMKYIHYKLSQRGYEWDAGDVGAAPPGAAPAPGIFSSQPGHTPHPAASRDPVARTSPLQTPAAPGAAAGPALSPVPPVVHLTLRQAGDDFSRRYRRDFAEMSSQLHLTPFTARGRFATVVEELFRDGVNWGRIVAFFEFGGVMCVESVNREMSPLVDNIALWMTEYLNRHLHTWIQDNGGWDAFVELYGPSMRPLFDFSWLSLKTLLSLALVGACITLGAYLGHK

Molecule	binding of GST Mcl-1 (GST Mcl-1)	killing of MEFs [1]	IC50 (Mcl-1 ΔN151 ΔC23)	IC50 (A1 ΔC20)	interaction with Bcl-2 by co-immunoprecipitation (FLAG-tagged Bcl-2)	interaction with Bcl-xL by co-immunoprecipitation (FLAG-tagged Bcl-xL)	interaction with Mcl-1 by co-immunoprecipitation (FLAG-tagged Mcl-1)	IC50 (Bcl-2 ΔC22)	IC50 (Bcl-xL ΔC24)	IC50 (Bcl-w ΔC29)	killing of MEFs on co-expression with the BadBH3 ([1]; co-expressed with GFP-Bims BadBH3, 24 hours)	killing of MEFs on co-expression with the NoxaBH3 [1]	long-term survival, GFP+ve colonies [2]
Bmf: BH3-only protein Bmf, expressed from retrovirus in MEFs, recombinant in GST pull-down (protein, UniProt Q91ZE9 1-185, looked up) Bcl-2-modifying factor: MEPPQCVEELEDDVFQSEDGEPGTQPGGLLSADLFAQSQLDCPLSRLQLFPLTHCCGPGLRPISQEDKATQTLSPASPSQGVMLPCGVTEEPQRLFYGNAGYRLPLPASFPAGSPLGEQPPEGQFLQHRAEVQIARKLQCIADQFHRLHTQQHQQNRDRAWWQVFLFLQNLALNRQENREGVGPW	weakly	much less potent killers	1100 nM	1800 nM									
Bad: full-length mouse BH3-only protein Bad expressed in cells, recombinant in GST pull-down (protein, UniProt Q61337 1-204, looked up, full-length, full-length mouse BH3-only protein Bad expressed in cells, recombinant in GST pull-down) MGTPKQPSLAPAHALGLRKSDPGIRSLGSDAGGRRWRPAAQSMFQIPEFEPSEQEDASATDRGLGPSLTEDQPGPYLAPGLLGSNIHQQGRAATNSHHGGAGAMETRSRHSSYPAGTEEDEGMEEELSPFRGRSRSAPPNLWAAQRYGRELRRMSDEFEGSFKGLPRPKSAGTATQMRQSAGWTRIIQSWWDRNLGKGGSTPSQ	not	much less potent killers	> 100000 nM	15000 nM	bound well	bound well	not appreciably	16 nM	5.3 nM	30 nM			
Noxa: full-length BH3-only protein Noxa expressed in cells (mouse Noxa bearing two BH3s in co-immunoprecipitation) (protein, UniProt Q9JM54 1-103, looked up, full-length) MPGRKARRNAPVNPTRAELPPEFAAQLRKIGDKVYCTWSAPDITVVLAQMPGKSQKSRMRSPSPTRVPADLKDECAQLRRIGDKVNLRQKLLNLISKLFNLVT		much less potent killers		180 nM		did not	interacted only with Mcl-1	> 100000 nM	> 100000 nM	> 100000 nM	as much cell death as expression of Bims alone	did not augment	modest effects
Bik: full-length human BH3-only protein Bik expressed in cells (protein, UniProt Q13323 1-160, looked up, full-length) MSEVRPLSRDILMETLLYEQLLEPPTMEVLGMTDSEEDLDPMEDFDSLECMEGSDALALRLACIGDEMDVSLRAPRLAQLSEVAMHSLGLAFIYDQTEDIRDVLRSFMDGFTTLKENIMRFWRSPNPGSWVSCEQVLLALLLLLALLLPLLSGGLHLLLK		much less potent killers		58 nM		to a greater extent than Bcl-2 or Mcl-1						potently enhanced	modest effects
